# Laboratory results from patent publication US20210113678A1 (ENTEROME S A, published 2021).
# B1: IL13RA2-L (peptide)
# peptide: FLPFGFILPV
# B2: peptide 2M (peptide)
# peptide: LMLGEFLKL
# B3: BIRC5-H (peptide)
# peptide: LTLGEFLKL
# B4: BIRC5-B1 (peptide)
# peptide: FMLGEFLKL
# B5: IL13RA2-B (peptide)
# peptide: FLPFGFILV
# B6: peptide 1F9M (peptide)
# peptide: FLPFGFILM
# B7: comparative peptide 1A9V (peptide)
# peptide: ALPFGFILV
# B8: peptide 1I9A (peptide)
# peptide: ILPFGFILA
# Experiments:
# [1] = target: T1, HLA-A*0201 molecule on human T2 cells (human); assay: T2 cells expressing HLA-A*0201, anti-HLA-A2-PE, FACS (Example 8)
# T1 construct: read out with anti-HLA-A2 antibody BB7.2-PE; also called HLA-A2
# [2] = target: T1, HLA-A*0201 molecule on human T2 cells; assay: T2 cells expressing HLA-A*0201, anti-HLA-A2-PE, FACS
# [3] = target: T1, HLA-A*0201 molecule on human T2 cells; assay: T2 cells expressing HLA-A*0201, anti-HLA-A2-PE, FACS (Example 9)
# [4] = target: T1, HLA-A*0201 molecule on human T2 cells; assay: as above; remark: listed apart in the source
# [5] = target: T1, HLA-A*0201 molecule on human T2 cells; assay: T2 cells expressing HLA-A*0201, anti-HLA-A2-PE, FACS; remark: listed apart in the source
# [6] = target: T1, HLA-A*0201 molecule on human T2 cells; assay: T2 cells expressing HLA-A*0201, anti-HLA-A2-PE, FACS (Example 7)
Binder,In vitro binding affinity (relative to reference peptide HIV pol 589-597) [1],In vitro binding affinity (relative to reference peptide HIV pol 589-597) [2],mean relative fluorescence intensity at 0.1 µM peptide [3],mean relative fluorescence intensity at 1 µM peptide [3],mean relative fluorescence intensity at 10 µM peptide [3],mean relative fluorescence intensity at 100 µM peptide [3],Concentration of peptide that induces 20% of HLA-A2 expression [4],In vitro binding affinity (relative to reference peptide HIV pol 589-597) [4],mean relative fluorescence intensity at 1.5625 µM peptide [5],mean relative fluorescence intensity at 3.125 µM peptide [5],mean relative fluorescence intensity at 6.25 µM peptide [5],mean relative fluorescence intensity at 25 µM peptide [5],mean relative fluorescence intensity at 50 µM peptide [5],mean relative fluorescence intensity at 100 µM peptide [5],Concentration of peptide that induces 20% of HLA-A2 expression [2],Concentration of peptide that induces 20% of HLA-A2 expression [1],In vitro binding affinity (relative to reference peptide HIV pol 589-597) [6]
B1,0.3,0.3,–,–,–,–,–,–,–,–,–,–,–,–,–,–,–
B2,–,–,0.76 % of HIV peptide,8.37 % of HIV peptide,48.5 % of HIV peptide,75.2 % of HIV peptide,2.87 µM,3.38,–,–,–,–,–,–,–,–,–
B3,–,16.1,0 % of HIV peptide,0 % of HIV peptide,3.52 % of HIV peptide,20.5 % of HIV peptide,95.9 µM,113,1.7 % of HIV peptide,1.4 % of HIV peptide,10.8 % of HIV peptide,9.8 % of HIV peptide,18.9 % of HIV peptide,35.6 % of HIV peptide,53 µM,–,–
B4,–,0.8,1.07 % of HIV peptide,17.4 % of HIV peptide,65.1 % of HIV peptide,102 % of HIV peptide,1.24 µM,1.46,1.9 % of HIV peptide,22.3 % of HIV peptide,36.1 % of HIV peptide,61.7 % of HIV peptide,77.1 % of HIV peptide,117 % of HIV peptide,2.7 µM,–,–
B5,0.3,0.3,–,–,–,–,–,–,14.8 % of HIV peptide,15.7 % of HIV peptide,40.8 % of HIV peptide,86.5 % of HIV peptide,113 % of HIV peptide,128 % of HIV peptide,2.9 µM,2.9 µM,0.49
B6,–,–,–,–,–,–,–,–,–,–,–,–,–,–,–,–,2.62
B7,3.6,–,–,–,–,–,–,–,–,–,–,–,–,–,–,36.5 µM,3.06
B8,–,–,–,–,–,–,–,–,–,–,–,–,–,–,–,–,2.22
